Laboratory results published in publication PMC10925418, “Survivin Mediates Mitotic Onset in HeLa Cells Through Activation of the Cdk1-Cdc25B Axis” (Research Square, 2024).
Where no end group is shown, it is not given here.

B1: GST-Survivin 1-70 (domain or fragment, UniProt O15392 1-70, looked up)
chain: MGAPTLPPAWQPFLKDHRISTFKNWPFLEGCACTPERMAEAGFIHCPTENEPDLAQCFFCFKELEGWEPD
notes: Survivin residues 1-70, deletion mutant made by PCR; also called Survivin N-terminus (first 70 amino acids); source: E. coli BL21, purified (glutathione agarose); not shown: GST, N-terminal, kept
B2: His-Cdk1 36–85 (domain or fragment)
chain: not shown
notes: Cdk1, human, residues 36-85, deletion mutant made by PCR; source: E. coli BL21, purified (Ni2+-charged agarose); not shown: His-tag, N-terminal, kept
B3: SUR A55-D70 peptide (peptide)
peptide: AQCFFCFKELEGWEPD
modifications: not fully specified (N-terminus); cysteine pairing not given here
notes: Survivin residues Ala55 through Asp70; the methods describe only one form of the peptide (biotin and tat at the N-terminus); also called Survivin peptide; Survivin A55-D70; source: synthetic peptide (f-BOC chemistry, HPLC purified; Peptron or W. M. Keck Biotechnology Research Center, Yale)
B4: His-Cdk1 1–85 (domain or fragment)
chain: not shown
notes: Cdk1, human, residues 1-85, deletion mutant made by PCR; source: E. coli BL21, purified (Ni2+-charged agarose); not shown: His-tag, N-terminal, kept

Experiments:
Details in all cases: both partners purified
His-Cdk1 = target: T1, His-Cdk1 (human, UniProt P06493 1-297); test: pull-down; GST pull-down: His-tagged recombinant proteins mixed with GST, GST-Survivin or GST-Survivin mutants; Western blotting
T1 construct: Cdk1, human, full-length cDNA BC014563 subcloned into pRSETa; also called recombinant His-Cdk1; Cdk1 protein kinase; source: E. coli BL21, purified (Ni2+-charged agarose); not shown: His-tag, N-terminal, kept
T1 sequence (P06493 whole entry): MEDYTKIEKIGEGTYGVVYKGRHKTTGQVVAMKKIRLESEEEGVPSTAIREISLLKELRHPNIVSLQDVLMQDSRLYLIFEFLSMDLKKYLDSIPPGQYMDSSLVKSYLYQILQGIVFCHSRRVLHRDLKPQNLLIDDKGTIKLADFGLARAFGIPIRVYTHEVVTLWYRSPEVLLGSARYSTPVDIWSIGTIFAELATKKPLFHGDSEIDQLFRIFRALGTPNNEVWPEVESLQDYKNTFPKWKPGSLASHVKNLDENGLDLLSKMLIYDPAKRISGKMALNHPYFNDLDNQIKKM

SUR A55-D70 peptide = target: B3; test: pull-down; streptavidin-binding assay: 50 ug biotinylated peptide bound to streptavidin agarose, mixed with recombinant His-Cdk1 fragments; Western blotting
His-Cdk1 1–85 = target: B4; test: as above
Chain of His-Cdk1 1–85 (P06493 1-85): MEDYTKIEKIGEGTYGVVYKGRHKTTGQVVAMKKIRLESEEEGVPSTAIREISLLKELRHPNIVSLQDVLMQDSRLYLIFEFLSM

His-Cdk1 9–85 = target: T2, His-Cdk1 9–85 (human, UniProt P06493 9-85); test: as above
T2 construct: Cdk1, human, residues 9-85, deletion mutant made by PCR; source: E. coli BL21, purified (Ni2+-charged agarose); not shown: His-tag, N-terminal, kept
T2 sequence (P06493 9-85): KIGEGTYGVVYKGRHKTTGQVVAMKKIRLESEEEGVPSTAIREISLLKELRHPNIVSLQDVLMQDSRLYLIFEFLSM

His-Cdk1 1–183 = target: T3, His-Cdk1 1–183 (human, UniProt P06493 1-183); test: as above
T3 construct: source: E. coli BL21, purified (Ni2+-charged agarose); not shown: His-tag, N-terminal, kept
T3 sequence (P06493 1-183): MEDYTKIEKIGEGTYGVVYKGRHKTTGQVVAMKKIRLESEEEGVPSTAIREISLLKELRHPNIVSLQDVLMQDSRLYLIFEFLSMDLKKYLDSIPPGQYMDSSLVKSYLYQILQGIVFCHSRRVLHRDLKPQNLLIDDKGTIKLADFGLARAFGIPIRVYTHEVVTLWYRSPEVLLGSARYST

GST-Survivin = target: T4, GST-Survivin (UniProt O15392 1-142); test: pull-down; GST pull-down: His-tagged recombinant proteins mixed with GST, GST-Survivin or GST-Survivin mutants; Western blotting
T4 construct: Survivin; the printed peptide 55-70 fits human Survivin; also called recombinant Survivin; pGST-Survivin product; source: E. coli BL21, purified (glutathione agarose); not shown: GST, N-terminal, kept

B1
binding result (His-Cdk1): binds

B2
binding result (SUR A55-D70 peptide): binds

B3
binding result (His-Cdk1 1–85): binds
binding result (His-Cdk1 9–85): binds
binding result (His-Cdk1 1–183): binds

B4
binding result (GST-Survivin): binds
